{"source": "paper PMC6819661", "key": {"[1]": {"tested_on": "GST-NS2A(58-133) (Zika virus)", "experiment": "pull-down", "conditions": "EMSA: 50 mM Tris-HCl pH 7.5, 10 mM 2-mercaptoethanol, 2 mM MgCl2, 50 mM KCl, 15 min at 24 C, 100 pM biotinylated RNA, 0.4% agarose; pull-down: Pierce magnetic …"}, "GST-NS2A (Zika virus)": {"tested_on": "GST-NS2A (Zika virus)", "experiment": "EMSA", "conditions": "EMSA: 50 mM Tris-HCl pH 7.5, 10 mM 2-mercaptoethanol, 2 mM MgCl2, 50 mM KCl, 15 min at 24 C, 100 pM biotinylated RNA, 0.4% agarose; pull-down: Pierce magnetic …"}}}
{"substance": "5' UTR-C66-3' UTR-biotin RNA", "values": [{"measurement": "binding signal (% (reference))", "setting": "[1]", "result": 100}, {"measurement": "Kd", "setting": "GST-NS2A (Zika virus)", "result": 10.3, "unit": "nM"}]}
